For one protein, Km, kcat and kcat/Km results are on record in publication PMC5708134.

Substrate in this data set: CC1=CC(=O)c2ccccc2C1=O
Put plainly: Chemical redox cycling by DCXR. Particulars: other: redox cycling; quinone varied; 200 μM NADPH fixed; pH 7.0. The data set is classed as biochemical, human.

B1: recombinant human DCXR (Homo sapiens) (protein)
chain: MELFLAGRRVLVTGAGKGIGRGTVQALHATGARVVAVSRTQADLDSLVRECPGIEPVCVDLGDWEATERALGSVGPVDLLVNNAAVALLQPFLEVTKEAFDRSFEVNLRAVIQVSQIVARGLIARGVPGAIVNVSSQCSQRAVTNHSVYCSTKGALDMLTKVMALELGPHKIRVNAVNPTVVMTSMGQATWSDPHKAKTMLNRIPLGKFAEVEHVVNAILFLLSDRSGMTTGSTLPVEGGFWAC
In general, Km refers to the concentration of substrate that gives half-maximal velocity. As usually defined, the kcat is the number of substrate molecules converted per active site and unit of time at saturation. As a reminder, the kcat/Km is the turnover number divided by the Michaelis constant. As for B1, the Km was 365.80 µM, the kcat is 0.022 s⁻¹ and the kcat/Km came to 66.7 M⁻¹ s⁻¹.
